Assay [1] deals with T1, human bradykinin B1 receptor (human, UniProt P46663 1-353).
T1 construct: whole, on cells; Assays were run on cell membrane preparations (50 ug/well), not on intact cells; HEK293T::GFP::hB1R membranes appear only in the saturation assay; also called hB1R; BDKRB1
T1 sequence (looked up): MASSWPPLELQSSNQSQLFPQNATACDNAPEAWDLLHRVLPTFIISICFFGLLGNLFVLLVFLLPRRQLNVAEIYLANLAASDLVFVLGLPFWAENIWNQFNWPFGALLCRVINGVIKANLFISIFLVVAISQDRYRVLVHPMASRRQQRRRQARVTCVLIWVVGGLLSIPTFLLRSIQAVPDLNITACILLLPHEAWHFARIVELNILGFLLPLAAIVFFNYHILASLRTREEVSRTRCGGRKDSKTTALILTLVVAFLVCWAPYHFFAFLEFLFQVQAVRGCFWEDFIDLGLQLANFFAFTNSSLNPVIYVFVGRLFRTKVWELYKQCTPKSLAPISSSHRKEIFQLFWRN
As to the kind of experiment: average Ki of the competitive radioligand binding assays on hB1R membranes. How it is done: (§1) Competitive Binding Assays: Assays were performed using 96-well MultiScreenₘₛ with glass fiber filter and PVDF support obtained from Millipore Corp, Billerica, Mass. (cat. no. MSFB N6B, lot no. R8AN42424). Wells of the MultiScreen plate were pre-soaked with 0.5% of cold Poly(ethyleneimine) (PEI) (cat. no. P3143, Sigma-Aldrich, St. Louis, Mo.) for 30 minutes. Afterward, wells were washed once with 50 mM of Tris-HCl pH 7.4. Total volume per wells was 200 μL. […] The MultiScreen plate was then incubated at 27° C. for 15 minutes with agitation at 300 rpm. The assay was stopped by suctioning the reaction solution through the bottom PVDF membrane filter and discarded. The membranes were washed 7x with 150 μL/well of cold 50 mM Tris-HCl pH 7.4. Radioactivity was counted using 1450 MicroBeta TriLux—Microplate Scintillation and Luminescence Counter (Perkin Elmer Inc., Shelton, Conn.).

In assay [2] the target is T1, human bradykinin B1 receptor. Put plainly: assay not described at this place; competitive binding presumed.
For assay [3] the target is unchanged. As to the kind of experiment: competitive radioligand binding; hot ligand BK-ANT-ARC 4.6 nM; CHO-K1 hB1R membranes. How it is done:
as §1

For assay [4] the target is unchanged. As to the kind of experiment: competitive radioligand binding; hot ligand BK-AG-ARC 12.5 nM; CHO-K1 hB1R membranes. Here is the method: as §1
Assay [5] shares this target. As to the kind of experiment: competitive radioligand binding; hot ligand BK-ANT-ARC 12.5 nM; CHO-K1 hB1R membranes. Here is the method:
as §1

Assay [6] shares this target. Put plainly: average Ki of the competitive radioligand binding assays on hB1R membranes (single assay). Here is the method:
as §1

Assay [7] shares this target. As to the kind of experiment: saturation radioligand binding, CHO-K1::hB1R against HEK293T::GFP::hB1R membranes. Here is the method: (§2) Assays were done using 96-well MultiScreenHTS with glass fiber filter and PVDF support obtained from Millipore Corp, Billerica, Mass. (cat. no. MSFB N6B, lot no. R8AN42424). Wells of the MultiScreen plate were pre-soaked with 0.5% of cold Poly(ethyleneimine) (PEI) (cat. no. P3143, Sigma-Aldrich, St. Louis, Mo.) for 30 minutes. Afterward, wells were washed once with 50 mM of Tris-HCl pH 7.4. Total volume per wells was 200 μL. […] The assay buffer contained 50 mM of Tris-HCl pH 7.4 and 5 mM of MgCl₂. The Multiscreen plate was incubated at 27° C. for 15 minutes. The assay was stopped by suctioning the reaction solution through the PVDF membrane filter, and washing the filter with ice cold 50 mM Tris-HCl pH 7.4. Scintillation fluid was added to each well, and the radioactivity was measured using a MicroBeta Trilux Microplate Scintillation and Luminescence Counter (Perkin Elmer Inc., Shelton, Conn.). Graphpad Prism 5 was used to calculate the affinity constant (Kd) and the receptor concentration (Bmax).

The target is the same in assay [8]. As to the kind of experiment: saturation radioligand binding, membranes of CHO-K1::hB1R cells. Here is the method: as §2
For assay [9] the target is unchanged. As to the kind of experiment: saturation radioligand binding, membranes of HEK293T::GFP::hB1R cells. How it is done: as §2
For assay [10] the target is unchanged. As to the kind of experiment: competitive radioligand binding; hot ligand BK-ANT-ARC 4.5 nM; CHO-K1 hB1R membranes. Here is the method: as §1

Values joined by “and” are separate entries in the source; they are usually repeats but may differ in a detail not shown here. Identical values can stand only once. Where no end group is shown, it is not given here. [ ]: non-standard residue; d: D form. The star is where a group is joined. DOTA = O=C(O)CN1CCN(CC(=O)O)CCN(CC(=O)*)CCN(CC(=O)O)CC1; Hyp = O=C(O)[C@@H]1C[C@@H](O)CN1; Cha = N[C@@H](CC1CCCCC1)C(=O)O; Ahx = NCCCCCC(=O)O

9 molecules from US20150238641A1 (BRITISH COLUMBIA CANCER AGENCY BRANCH, published 2015) can be followed below.

As usually defined, the Ki is the dissociation constant of the complex between target and ligand, obtained from inhibition or displacement. Turning to {DOTA-Ahx}-KRPPGFSPL (also: Ga complex of DOTA (natGa in assays, 68Ga in vivo), also called P03083) [Peptide 4: Ga-DOTA-Ahx-Lys-Arg-Pro-Pro-Gly-Phe-Ser-Pro-Leu], the Ki in [1] was 2.55 nM; in assay [2], 12.4 nM; in [3], 2.47 nM and 3.57 nM and 2.23 nM and 1.93 nM.

B1: Peptide 3: Ga-DOTA-PEG2-Lys-Arg-Pro-Hyp-Gly-Cha-Ser-Pro-Leu (peptide)
peptide: KRPXGXSPL
modifications: N-terminal Ga-DOTA-PEG2- (PEG2 = 3-[2-(2-aminoethoxyl)ethoxy]propanoic acid); Hyp at position 4; Cha at position 6
notes: 68Ga-labelled in the in vivo imaging; also called Ga-68 Peptide 3
For the molecule B1, the inhibition constant Ki in assay [1] is 16 nM; in [3], 13.3 nM and 17.1 nM and 17.6 nM and 16 nM.

As to KRPXGXSPL (N-terminal Ga-DOTA-Ahx-; Hyp at position 4; Cha at position 6) [Peptide 10: Ga-DOTA-Ahx-Lys-Arg-Pro-Hyp-Gly-Cha-Ser-Pro-Leu], the Ki is 27.8 nM in assay [1]; 22.3 nM and 29 nM and 32 nM in [3].

B2: Peptide 1: D-Pra-Ahx-Lys-Arg-Pro-Hyp-Gly-Cha-Ser-Pro-(D-Phe) (peptide)
peptide: KRPXGXSPF
modifications: N-terminal D-Pra-Ahx- (D-propargylglycine, 6-aminohexanoic acid); Hyp (hydroxyproline) at position 4; Cha (beta-cyclohexylalanine) at position 6; D-Phe at position 9
notes: Agonist-derived probe
B2: the Ki came to 32.2 nM in assay [1], 10.9 nM in assay [4] and 74.6 nM in [5].

B3: Peptide 2: DTPA-Ahx-Lys-Arg-Pro-Hyp-Gly-Cha-Ser-Pro-(D-Phe) (peptide)
peptide: KRPXGXSPF
modifications: N-terminal DTPA-Ahx- (printed 'DPA-Ahx' in Table 4); Hyp at position 4; Cha at position 6; D-Phe at position 9
As for B3, the Ki in assay [4] and in [6] was 131 nM each time.

B4: Peptide 12: Ga-DOTA-Ahx-Lys-Arg-Pro-Hyp-Gly-Cha-Ser-Pro-(D-Phe) (peptide)
peptide: KRPXGXSPF
modifications: N-terminal Ga-DOTA-Ahx-; Hyp at position 4; Cha at position 6; D-Phe at position 9
notes: 68Ga-labelled in vivo
For the molecule B4, the Ki in assay [1] is 25.4 nM; in assay [3], 19.7 nM and 29.1 nM and 27.5 nM.

B5: H-Lys-Arg-Pro-Pro-Gly-Phe-Ser-Pro-Leu-OH (BK-ANT, Bachem H-2582) (peptide)
peptide: H-KRPPGFSPL-OH
notes: Unlabelled control B1R antagonist bought from Bachem; also called Lys[Leu^8]-des-Arg^9-BK; [Leu^9,des-Arg^10]kallidin
As for B5, the inhibition constant (Ki) in assay [3] was determined as 0.49 nM.

B6: [3,4-prolyl-3,4-3H(N)] [Leu^9, Des-Arg^10]Kallidin (peptide)
peptide: KRPPGFSPL
modifications: also: 3,4-prolyl-3,4-3H(N) tritium label on proline
notes: Radioligand from American Radiolabeled Chemicals (ART1609) or Perkin Elmer (NET1096250UC); also called BK-ANT-ARC; BK-ANT-PE
A word on the Kd: it is the equilibrium constant for the complex coming apart. B6: the “fold lower Kd in CHO-K1::hB1R cells than in HEK293T::GFP::hB1R cells” value in [7] stood at 6 fold. In addition, the equilibrium dissociation constant (Kd) was determined as 0.574 nM in assay [8] and 3.46 nM in [9].

On to {DOTA}-GGKRP[Hyp]G[Cha]SPL (also: Ga loaded in DOTA, 68Ga-labelled in vivo) [Peptide 8: Ga-DOTA-Gly-Gly-Lys-Arg-Pro-Hyp-Gly-Cha-Ser-Pro-Leu], for which the Ki was 11.4 nM in assay [1]; 8.63 nM and 12.1 nM in [10]; 13.5 nM in assay [3].
